Source: patent US20230235058A1 (OXFORD UNIVERSITY INNOVATION, published 2023)
Residue numbers refer to the chain shown, from its start. Names and notes keep the numbering of the source. Each block holds one binder with its values, some of them ahead of it.

Legend:
human FcγR3A 158V [1] = biological target: T1, human FcγR3A 158V (human, UniProt P08637 17-208); assay: SPR 37C, steady state; wild-type hIgG1 Fc;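 for result: fc variants captured on chip-bound human BTLA ectodomain, recombinant FcγR ectodomains injected as analyte at varied concentrations, double-referenced equilibrium binding fitted to Langmuir model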
T1 construct: extracellular domain
T1 sequence (P08637 17-208 F176V): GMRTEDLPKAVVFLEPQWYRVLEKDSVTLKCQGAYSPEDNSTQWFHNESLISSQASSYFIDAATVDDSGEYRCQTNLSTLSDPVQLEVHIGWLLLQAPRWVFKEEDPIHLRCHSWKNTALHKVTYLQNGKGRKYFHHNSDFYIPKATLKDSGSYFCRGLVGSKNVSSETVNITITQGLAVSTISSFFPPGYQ
Method: (§1) For the low affinity FcγRs (FcγR2A, FcγR2B, FcγR3A and FcγR3B) the interactions were assessed by surface plasmon resonance with the recombinantly expressed FcRs (extracellular domains only) as analyte. Briefly, recombinant human BTLA extracellular domain (BTLA^K31-R151) was covalently immobilised to both flow cells of all channels of a CMS Series S sensor chip using the GE Healthcare Amine coupling kit. The 2.8.6 Fc variant to be assessed was then captured (approx. 500-1000 response units) in flow cell 2 of each channel. Steady state affinity analysis was then performed by injecting varying concentrations of FcR in multiple cycles and measuring equilibrium binding. Double referencing was used (subtracting the signal in the reference Fc1 and also subtracting the signal from a blank zero concentration injection). KDs were calculated from the Langmuir curves (plotting equilibrium binding against analyte concentration to determine the concentration required for half maximal binding).

human FcγR3B [2] = biological target: T2, human FcγR3B (human, UniProt O75015 17-200, limits assumed); assay: SPR 37C, steady state; wild-type hIgG1 Fc;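 for result: fc variants captured on chip-bound human BTLA ectodomain, recombinant FcγR ectodomains injected as analyte at varied concentrations, double-referenced equilibrium binding fitted to Langmuir model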
T2 construct: extracellular domain; also called CD16B
T2 sequence (O75015 17-200 limits assumed): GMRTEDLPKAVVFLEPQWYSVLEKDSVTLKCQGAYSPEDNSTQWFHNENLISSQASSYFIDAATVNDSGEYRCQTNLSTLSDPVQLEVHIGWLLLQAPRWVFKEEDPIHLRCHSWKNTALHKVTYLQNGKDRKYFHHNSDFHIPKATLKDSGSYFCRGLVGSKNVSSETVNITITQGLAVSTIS
Method: as §1

human FcγR2A 131R [3] = biological target: T3, human FcγR2A 131R (human, UniProt P12318 34-217); assay: SPR 37C, steady state; wild-type hIgG1 Fc;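 for result: fc variants captured on chip-bound human BTLA ectodomain, recombinant FcγR ectodomains injected as analyte at varied concentrations, double-referenced equilibrium binding fitted to Langmuir model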
T3 construct: extracellular domain
T3 sequence (looked up): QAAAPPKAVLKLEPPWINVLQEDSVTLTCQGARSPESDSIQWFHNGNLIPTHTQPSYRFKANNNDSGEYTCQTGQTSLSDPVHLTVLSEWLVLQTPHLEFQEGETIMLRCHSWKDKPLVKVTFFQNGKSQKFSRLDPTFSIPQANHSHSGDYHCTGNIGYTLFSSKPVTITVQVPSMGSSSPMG
Method: as §1

human FcγR2B [4] = biological target: T4, human FcγR2B (human, UniProt P31994 43-217); assay: SPR 37C, steady state; wild-type hIgG1 Fc;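 for result: fc variants captured on chip-bound human BTLA ectodomain, recombinant FcγR ectodomains injected as analyte at varied concentrations, double-referenced equilibrium binding fitted to Langmuir model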
T4 construct: extracellular domain; also called hFcγR2B; CD32B
T4 sequence (looked up): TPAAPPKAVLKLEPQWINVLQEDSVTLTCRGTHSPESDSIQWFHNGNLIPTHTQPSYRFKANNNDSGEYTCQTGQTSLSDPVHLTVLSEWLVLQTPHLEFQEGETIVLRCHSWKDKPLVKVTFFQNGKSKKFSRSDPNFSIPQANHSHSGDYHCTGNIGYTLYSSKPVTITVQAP
Method: as §1

human FcγR2A 131H [5] = biological target: T5, human FcγR2A 131H (human, UniProt P12318 34-217); assay: SPR 37C, steady state; wild-type hIgG1 Fc
T5 construct: extracellular domain
T5 sequence (looked up): T3 sequence (looked up) with R134H
Method: as §1

human FcγR3A 158F [6] = biological target: T6, human FcγR3A 158F (human, UniProt P08637 17-208); assay: SPR 37C, steady state; wild-type hIgG1 Fc
T6 construct: extracellular domain
T6 sequence (P08637 17-208): as the sequence (P08637 17-208 F176V) above, with V160F counted along it
Method: as §1

human FcRn = biological target: T7, human FcRn (human, UniProt P55899 24-297; P61769 21-119, limits assumed, biotinylated); assay: SPR, pH6.0
T7 construct: bought; also called FcRn pH6
Method: (§2) For the high affinity FcR interactions (FcγR1A, and also FcRn assessed at pH6.0) the binding was assessed in a kinetic analysis with antibody as analyte. […] Reference flow cell 1 was left empty in all channels. Purified antibody was then injected at a single concentration and on/off rates calculated by curve fitting on BiaEvaluation software. […] IgG Fc has two binding sites for FcRn so this assessment performed with FcRn immobilised at high density provides an avidity estimate for the interaction rather than a true KD.

human FcγR1A [7] = biological target: T8, human FcγR1A (human, UniProt P12314 16-288, biotinylated); assay: SPR 37C, kinetic; wild-type hIgG1 Fc
T8 construct: bought; also called CD64A
T8 sequence (P12314 16-288): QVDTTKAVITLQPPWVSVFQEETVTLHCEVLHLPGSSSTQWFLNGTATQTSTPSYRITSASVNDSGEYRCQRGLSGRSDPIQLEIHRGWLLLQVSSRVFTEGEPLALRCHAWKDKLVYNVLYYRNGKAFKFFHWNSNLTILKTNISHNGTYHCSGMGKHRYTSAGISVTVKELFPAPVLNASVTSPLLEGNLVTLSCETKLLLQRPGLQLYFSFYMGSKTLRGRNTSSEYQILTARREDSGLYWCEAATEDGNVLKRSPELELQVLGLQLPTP
Method: (§3) For the high affinity FcR interactions (FcγR1A, and also FcRn assessed at pH6.0) the binding was assessed in a kinetic analysis with antibody as analyte. […] Reference flow cell 1 was left empty in all channels. Purified antibody was then injected at a single concentration and on/off rates calculated by curve fitting on BiaEvaluation software.

human FcγR3A 158V [8] = biological target: T1, human FcγR3A 158V; assay: SPR 37C, steady state
Method: as §1

human FcγR3B [9] = biological target: T2, human FcγR3B; assay: SPR 37C, steady state
Method: as §1

human FcγR2A 131R [10] = biological target: T3, human FcγR2A 131R; assay: SPR 37C, steady state
Method: as §1

human FcγR2B [11] = biological target: T4, human FcγR2B; assay: SPR 37C, steady state
Method: as §1

human FcγR2A 131H [12] = biological target: T5, human FcγR2A 131H; assay: SPR 37C, steady state
Method: as §1

human FcγR3A 158F [13] = biological target: T6, human FcγR3A 158F; assay: SPR 37C, steady state
Method: as §1

human FcγR1A [14] = biological target: T8, human FcγR1A; assay: SPR 37C, kinetic
Method: as §3

[15] = biological target: T9, soluble cynomolgus macaque BTLA extracellular domain (BTLA K31-R151) (cynomolgus macaque); assay: SPR Biacore 8K 37C, single cycle kinetics;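 note: antibody captured on sensor chip, soluble BTLA extracellular domain flowed over at several concentrations in HBS-EP pH 7.4, rates fitted after subtracting isotype-control reference channel and blank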
T9 construct: also called cynomolgus BTLA; cyno BTLA
T9 chain: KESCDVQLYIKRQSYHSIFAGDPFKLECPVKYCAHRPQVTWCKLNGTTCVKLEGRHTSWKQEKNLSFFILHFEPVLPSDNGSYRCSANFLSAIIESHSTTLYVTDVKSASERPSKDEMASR
Method: (§4) The binding affinity and kinetics of humanised BTLA agonist antibodies to human or cynomolgus BTLA were determined by surface plasmon resonance using the Biacore 8K (GE Healthcare). […] Anti-BTLA antibody was then captured onto the biosensor surface and a negative control antibody (human IgG1k isotype control; Sino Biological cat #HG1K) captured in the reference channel. Various concentrations of monomeric soluble human BTLA extracellular domain (BTLA^K31-R151, produced recombinantly in house) or soluble cynomolgus macaque BTLA extracellular domain (BTLA^K31-R151, produced recombinantly in house) were then injected over the immobilized antibodies in the buffer HBS-EP (GE Healthcare, cat #BR100669), pH 7.4 (HBS-P) at 37° C., in a single cycle kinetics analysis.

[16] = biological target: T10, monomeric soluble human BTLA extracellular domain (BTLA K31-R151) (human, UniProt Q7Z6A9 31-151); assay: SPR Biacore 8K 37C, single cycle kinetics;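 note: antibody captured on sensor chip, soluble BTLA extracellular domain flowed over at several concentrations in HBS-EP pH 7.4, rates fitted after subtracting isotype-control reference channel and blank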
T10 construct: also called hBTLA; monomeric BTLA
Method: as §4

[17] = biological target: T10, monomeric soluble human BTLA …; assay: SPR, monomeric BTLA
[18] = biological target: T11, full length human BTLA expressed on cells (human, UniProt Q7Z6A9 31-289); assay: cell-based or functional assay
[19] = biological target: T12, full length cynomolgus BTLA expressed on Jurkat cells (cynomolgus monkey, UniProt Q7Z6A9 31-289 (human entry)); assay: flow cytometry, BTLA Jurkat cells
T12 construct: also called cynomolgus BTLA expressing cells
T12 chain: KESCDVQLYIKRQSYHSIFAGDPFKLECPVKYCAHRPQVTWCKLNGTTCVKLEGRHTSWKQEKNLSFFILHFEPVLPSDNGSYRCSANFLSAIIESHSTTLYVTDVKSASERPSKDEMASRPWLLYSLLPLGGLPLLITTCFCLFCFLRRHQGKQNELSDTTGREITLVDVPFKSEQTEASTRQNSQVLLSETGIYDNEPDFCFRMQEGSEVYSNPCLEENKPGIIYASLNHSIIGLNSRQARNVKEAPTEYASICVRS
Method: (§5) A lentiviral transfection system was used to express full length human or cynomolgus BTLA in a Jurkat T cell line. 1×10⁵ cells per well were plated in 96 well U-bottom plates. […] Secondary antibody was incubated for 30 minutes on ice, then cells were washed and resuspended in FACS buffer for analysis on a flow cytometer. The geometric mean fluorescent intensity of secondary antibody was plotted for each concentration and the EC50 for receptor binding calculated by non-linear curve fitting using GraphPad Prism software.
(§6) The ability of the BTLA agonist antibodies of the present invention to bind to human or cynomolgus BTLA expressed on the cell surface was assessed by flow cytometry. A lentiviral transfection system was used to express full length human or cynomolgus BTLA in a Jurkat T cell line. 1×10⁵ cells per well were plated in 96 well U-bottom plates.

[20] = biological target: T11, full length human BTLA expressed on …; assay: flow cytometry, BTLA Jurkat cells
Method: as §5, §6

human FcγR3A 158V [21] = biological target: T1, human FcγR3A 158V; assay: SPR 37C, steady state; hIgG1 P238D G237D P271G A330R (V9) Fc variant
Method: as §1

human FcγR3B [22] = biological target: T2, human FcγR3B; assay: as above
Method: as §1

human FcγR2A 131R [23] = biological target: T3, human FcγR2A 131R; assay: as above
Method: as §1

human FcγR2B [24] = biological target: T4, human FcγR2B; assay: as above
Method: as §1

human FcγR2A 131H [25] = biological target: T5, human FcγR2A 131H; assay: as above
Method: as §1

human FcγR3A 158F [26] = biological target: T6, human FcγR3A 158F; assay: as above
Method: as §1

human FcγR2B [27] = biological target: T4, human FcγR2B; assay: SPR (Example 23)
Method: as §1

human FcγR1A [28] = biological target: T8, human FcγR1A; assay: SPR 37C, kinetic; hIgG1 P238D G237D P271G A330R (V9) Fc variant
Method: as §2

- Kd (human FcγR3A 158V [1]): 2.78 µM
- Kd (human FcγR3B [2]): 22.9 µM
- Kd (human FcγR2A 131R [3]): 1.57 µM
- Kd (human FcγR2B [4]): 8.65 µM
- Kd (human FcγR2A 131H [5]): 1.98 µM
- Kd (human FcγR3A 158F [6]): 9.37 µM
- avidity (FcRn pH6) (human FcRn): 4.58 nM
- Kd (human FcγR1A [7]): 0.00375 µM
B1: humanised 2.8.6 hIgG1 (antibody)
heavy: not shown
VL: EIVLTQSPATLSLSPGERATLSCRASSSVSYMHWYQQKPGQAPRPLIYATSNRATGIPARFSGSGSGTDYTLTISSLEPEDFAVYYCHQWSSNPYTFGQGTKLEIKRTVAAPSVFIFPPSDEQLKSGTASVVCLLNNFYPREAKVQWKVDNALQSGNSQESVTEQDSKDSTYSLSSTLTLSKADYEKHKVYACEVTHQGLSSPVTKSFNRGEC
notes: Fc variant with the variable domains of humanised 2.8.6; not shown: human IgG1 heavy chain constant region; copies: 2 + 2

- binding result (human FcγR3A 158V [8]): no binding
- binding result (human FcγR3B [9]): no binding
- Kd (human FcγR2A 131R [10]): 54.4 µM
- Kd (human FcγR2B [11]): 104 µM
- binding result (human FcγR2A 131H [12]): no binding
- binding result (human FcγR3A 158F [13]): no binding
- binding result (human FcγR1A [14]): no binding
B2: humanised 2.8.6 hIgG1 D265A G236D S267E A330R (antibody)
heavy: QVTLKESGPALVKPTQTLTLTCTVSGFSLTTYGVHWIRQPPGKALEWLGVMWPGGRTSYNPSLKSRLTITKDNSKSQVVLTMTNMDPVDTATYYCVRGDYEYDYYAMDYWGQGTLVTVSSASTKGPSVFPLAPSSKSTSGGTAALGCLVKDYFPEPVTVSWNSGALTSGVHTFPAVLQSSGLYSLSSVVTVPSSSLGTQTYICNVNHKPSNTKVDKKVEPKSCDKTHTCPPCPAPELLDGPSVFLFPPKPKDTLMISRTPEVTCVVVAVEHEDPEVKFNWYVDGVEVHNAKTKPREEQYNSTYRVVSVLTVLHQDWLNGKEYKCKVSNKALPRPIEKTISKAKGQPREPQVYTLPPSREEMTKNQVSLTCLVKGFYPSDIAVEWESNGQPENNYKTTPPVLDSDGSFFLYSKLTVDKSRWQQGNVFSCSVMHEALHNHYTQKSLSLSPGK
light: B1 VL
notes: Fc variant with the variable domains of humanised 2.8.6; copies: 2 + 2

- Kd [15]: 0.147 µM
- koff [15]: 0.025 s⁻¹
- kon [15]: 170000 M⁻¹ s⁻¹
- Kd [16]: 0.00233 µM
- koff [16]: 0.00157 s⁻¹
- kon [16]: 673000 M⁻¹ s⁻¹
- avidity (FcRn pH6) (human FcRn): 1.43 nM
- Kd [17]: 0.00073 µM
- inhibition of NFkB signal, IC50 [18]: 0.059 nM
- maximal inhibition of NFkB signal [18]: 42%
- Kd (human FcγR3A 158V [8]): 7010 µM
- Kd (human FcγR3B [9]): 1580 µM
- Kd (human FcγR2A 131R [10]): 28.9 µM
- Kd (human FcγR2B [11]): 4.78 µM
- Kd (human FcγR2A 131H [12]): 76.5 µM
- Kd (human FcγR3A 158F [13]): 2480 µM
- Kd (human FcγR1A [14]): 0.465 µM
- EC50 [19]: 0.000854 µM
- EC50 [20]: 0.066 nM
B3: Humanised 2.8.6 (hIgG1 P238D) (antibody)
heavy: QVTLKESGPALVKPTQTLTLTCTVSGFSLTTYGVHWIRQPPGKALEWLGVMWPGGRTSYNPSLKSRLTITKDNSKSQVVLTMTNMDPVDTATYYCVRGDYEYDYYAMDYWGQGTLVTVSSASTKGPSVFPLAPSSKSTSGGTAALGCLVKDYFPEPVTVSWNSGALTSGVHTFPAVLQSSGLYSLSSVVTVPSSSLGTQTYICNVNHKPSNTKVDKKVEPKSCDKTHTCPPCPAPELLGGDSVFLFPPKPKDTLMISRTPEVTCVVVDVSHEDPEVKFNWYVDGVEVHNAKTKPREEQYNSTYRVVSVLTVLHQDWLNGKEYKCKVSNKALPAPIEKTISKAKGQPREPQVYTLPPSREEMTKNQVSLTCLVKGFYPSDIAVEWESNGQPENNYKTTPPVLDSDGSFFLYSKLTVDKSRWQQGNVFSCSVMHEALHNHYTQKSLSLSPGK
light: B1 VL
notes: copies: 2 + 2

- avidity (FcRn pH6) (human FcRn): 1.98 nM
- Kd (human FcγR3A 158V [21]): 321 µM
- Kd (human FcγR3B [22]): 6090 µM
- Kd (human FcγR2A 131R [23]): 1.84 µM
- Kd (human FcγR2B [24]): 0.173 µM
- Kd (human FcγR2A 131H [25]): 26.2 µM
- Kd (human FcγR3A 158F [26]): 216 µM
- fold higher affinity than the P238D isotype (human FcγR2B [27]): ~30 fold
- Kd (human FcγR1A [28]): 0.697 µM
B4: humanised 2.8.6 hIgG1 P238D G237D P271G A330R (V9) (antibody)
heavy: B2 heavy with D239G, G240D, P241D, A268D, E270S, P274G
light: B1 VL
notes: Fc variant with the variable domains of humanised 2.8.6; also called 2.8.6 hIgG1 V9; hIgG1 V9 isotype; copies: 2 + 2

- Kd [15]: 0.0154 µM
- koff [15]: 0.00352 s⁻¹
- kon [15]: 229000 M⁻¹ s⁻¹
- Kd [16]: 0.00125 µM
- koff [16]: 0.00133 s⁻¹
- kon [16]: 1.06e+06 M⁻¹ s⁻¹
- inhibition of NFkB signal, IC50 [18]: 0.028 nM
- maximal inhibition of NFkB signal [18]: 47%
- EC50 [19]: 0.000148 µM
- EC50 [20]: 0.062 nM
B5: Engineered humanised 6.2 (Variant C) (antibody, V domains shown)
VH: EVQLVESGGGLVKPGGSLRLSCAASGFTLSSYGMSWVRQAPGKGLEWVASIRSDGQTYYPDSVKGRFTISRDNAKNTLYLQMSSLRAEDTAVYYCTRGGYYGSSPYYWGQGTTVTVSS
VL: DIVMTQSPLSLPVTPGEPASISCKSSQSLLYSSNQKNYLAWYQQKPGQSPKLLIYWASTRESGVPDRFSGSGSGTDFTLKISRVEAEDVGVYYCQQYYNYLTFGGGTKVEIKR

- Kd [15]: 1.52 µM
- koff [15]: 0.431 s⁻¹
- kon [15]: 287000 M⁻¹ s⁻¹
- Kd [16]: 0.141 µM
- koff [16]: 0.122 s⁻¹
- kon [16]: 865000 M⁻¹ s⁻¹
- inhibition of NFkB signal, IC50 [18]: 0.065 nM
- maximal inhibition of NFkB signal [18]: 54%
- EC50 [19]: 0.0156 µM
- EC50 [20]: 0.177 nM
B6: Engineered humanised 3E8 (Variant B) (antibody, V domains shown)
VH: QVQLVQSGAELKKPGASVKVSCKASGYTFTSYAIRWVRQATGQGLEWMGEIYPRSGNTYYAQKFQGRATLTADKSISTAYMELSSLRSEDTAVYFCARSGGASYTMDYWGQGTTVTVSS
VL: ENVLTQSPATLSLSLGERATLSCSASSSVSSSYLHWYQQKPDQSPRPLIHRTSNLASGIPSRFSGSGSGTDYTLTISSLEAEDFAVYYCQQWSGYPFTFGSGTKLEIKR
